Measured values taken from patent US20230272088A1 (SYNTHEKINE, published 2023).

T1: extracellular domain of hIFNGR1 (human, UniProt P15260 18-245, conjugated to Alexa647 (site not stated))
T1 construct: UniProt P15260 residues 18-245; also called hIFNGR1-ECD; human IFNGR1 ECD
T1 sequence: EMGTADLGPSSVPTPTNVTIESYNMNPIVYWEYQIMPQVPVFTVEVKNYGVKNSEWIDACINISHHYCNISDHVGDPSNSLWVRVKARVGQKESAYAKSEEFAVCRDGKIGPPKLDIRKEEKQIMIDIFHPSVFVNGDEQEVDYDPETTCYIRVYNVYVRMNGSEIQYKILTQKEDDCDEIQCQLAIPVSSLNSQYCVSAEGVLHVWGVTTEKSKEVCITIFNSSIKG

T2: extracellular domain of mIFNGR1 (mouse, UniProt P15261 26-254, conjugated to Alexa647 (site not stated))
T2 construct: Origin and tags of the murine antigen are not described; UniProt P15261 residues 26-254; also called mIFNGR1-ECD; murine IFNGR1 ECD
T2 sequence: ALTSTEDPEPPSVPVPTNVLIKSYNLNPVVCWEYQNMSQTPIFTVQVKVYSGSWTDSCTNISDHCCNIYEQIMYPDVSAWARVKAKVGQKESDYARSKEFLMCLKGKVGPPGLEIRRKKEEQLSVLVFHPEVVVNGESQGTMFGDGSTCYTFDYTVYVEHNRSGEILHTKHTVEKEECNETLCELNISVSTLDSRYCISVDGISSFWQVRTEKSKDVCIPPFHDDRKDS

T3: extracellular domain of hIFNGR2 (human, UniProt P38484 28-247, conjugated to Alexa647 (site not stated))
T3 construct: also called hIFNGR2-ECD; human IFNGR2 ECD
T3 sequence: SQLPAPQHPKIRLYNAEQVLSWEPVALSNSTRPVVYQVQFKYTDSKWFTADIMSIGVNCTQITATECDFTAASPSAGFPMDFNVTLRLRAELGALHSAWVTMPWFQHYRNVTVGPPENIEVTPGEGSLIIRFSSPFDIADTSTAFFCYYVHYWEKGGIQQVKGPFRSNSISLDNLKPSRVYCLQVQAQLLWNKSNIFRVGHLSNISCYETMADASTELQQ


Columns and labels:
[1] = target: T1, extracellular domain of hIFNGR1; test: flow cytometry, yeast-displayed VHH, 100 nM Alexa647-conjugated antigen
Method: (§1) Binding of individual VHH to human and murine antigen was tested by flow cytometry. Briefly, 2E5 yeast cells expressing a single sdAb clone were added to each well of a 96 well plate. The first plate was incubated with 100 nM of human antigen conjugated to Alexa647 whereas the second plate was incubated with 100 nM of murine antigen conjugated to Alexa647. Yeast cells were washed 3 times with PBS containing 1% bovine serum albumin. Yeast cells were analyzed using flow cytometry and clones showing a mean fluorescence intensity of greater than 1000 were considered as binding molecules. Specificity of sdAbs was confirmed by incubating yeast cells with a irrelevant protein conjugated to Alexa647. Positive clones were sequenced, and sequences analyzed to identify unique clonotypes.

[2] = target: T2, extracellular domain of mIFNGR1; test: as above
Method: as §1

[3] = target: T3, extracellular domain of hIFNGR2; test: flow cytometry
[4] = target: T2, extracellular domain of mIFNGR1; test: flow cytometry
[5] = target: T1, extracellular domain of hIFNGR1; test: flow cytometry

| Binder | binding result [1] | binding result [2] | binding result [3] | binding result [4] | binding result [5] |
| --- | --- | --- | --- | --- | --- |
| DR956 (VHH, also called anti-IFNGR2 sdAb VHH DR956) VHH: EVQLVESGGGLVQAGGSLRLSCAASGRTFSSLAMAWFRQAPGKEREFVAATTILGGSADYGDPVKGRFTISRDNAKNTVYLQMNSLKPEDTAVYYCTGRRPAPSDNYWSPASYAYWGQGTQVTVSS | – | – | binds | – | – |
| DR913 (VHH, also called anti-IFNGR1 sdAb VHH DR913) VHH: EVQLVESGGGLVQAGGFLRLSCAASGRTFSSYAMGWFRQIPGKERELVAAISSWSGGSTYYADSVKGRFTISRDNAKNTVYLQMLSLKPEDTAVYYCTTGDYYSDYFKYDNENWGKGTQVTVSS | binds | binds | – | – | – |
| DR958 (VHH, also called anti-IFNGR2 sdAb VHH DR958) VHH: QVQLVESGGGLVQAGDSLTLSCTASGRTFSGYNMGWFRQAPGKERDFVAAINWIGGATYYADSVKGRFTISRDNAKNTVYLQMNSLKPEDTAVYYCHRYSEKFYSGKDYYTRDYDYWGQGTQVTVSS | – | – | binds | – | – |
| DR953 (VHH, also called anti-IFNGR2 sdAb VHH DR953) VHH: QVQLVESGGGLVQAGDSLRLSCAASGPTFSTYAMAWFRQAPGKEREFVAAITQSGRTTYYEDSVKGRFTISKDNAKNTLYLQMNSLQPEDTAVYYCAARDLWSDSPDDWRIYSFWGQGTQVTVSS | – | – | binds | – | – |
| DR907 (VHH, also called anti-IFNGR1 sdAb VHH DR907) VHH: EVQLVESGGGLVQAGGSLRLSCAASGRTFSNYAMGWFRQAPGNEREFVAAINWNIGSTYYADSVKGRFTISRDNAKNTVYLQMNSLKPEDTAVYYCGAVWPTGRLRVDSEYDYWGQGTQVTVSS | binds | – | – | binds | – |
| DR925 (VHH, also called anti-IFNGR1 sdAb VHH DR925) VHH: EVQLVESGGGLVQAGGSLVLSCAASGRTFSRYAMGWFRQAPGKEREFVAAISIGGGSADYADTVKGRFTISRNNAKNTMYLQMNSLKPEDTAVYYCAARTPRPSSSYFTPQDYEYWGQGTLVTVSS | binds | binds | – | – | – |
| DR922 (VHH, also called anti-IFNGR1 sdAb VHH DR922) VHH: QVQLVESGGGLVRAGGSLRLSCAASGSITSINTMGWFRQAPGKQRELVAAITSGGSTNYADSVKGRFTISRDNARNTVYLQMYSLKPEDTAVYYCEADSMYFRGQGTQVTVSS | binds | binds | – | – | – |
| DR918 (VHH, also called anti-IFNGR1 sdAb VHH DR918) VHH: EVQLVESGGGLVQAGGSLRLSCATSGLTDSTYGMAWFRQAPGKEREFVAAISRAGGSADHADSVKGRFTVSRDNAKKMVYLQMNSLKPEDTAVYYCASGRSYSSPYDYFNALAYSYWGQGTQVTVSS | binds | binds | – | – | – |
| DR903 (VHH, also called anti-IFNGR1 sdAb VHH DR903) VHH: EVQLVESGGGLVQAGGSLRLSCAASGRIASDYTRGWFRQAPGKEREFVAAIIRSVGDSYYADSVKGRFTISIDNAENTVYLQMNSLKPEDTAVYYCAVGGHLYYGSRWRYPASYDYWGQGTQVTVSS | – | binds | – | – | binds |
| DR923 (VHH, also called anti-IFNGR1 sdAb VHH DR923) VHH: QVQLVESGGGLVQAGGSLRLSCAASRRTFMTYAMGWFRQAPGKEREFVAAISWSSGSTYYADSVKGRFTISRDNAKNTMYLQMNSLKPEDTAVYYCTASSIATMYGPNDYAGQGTLVTVSS | binds | binds | – | – | – |
| DR905 (VHH, also called anti-IFNGR1 sdAb VHH DR905) VHH: EVQLVESGGGLVQAGGSLRLSCVASGRTFTGYAMGWFRQAPGKEREFVAVITWSGATTYYSASVKGRFTLSRDNAKNTVYLQMNSLKSEDTAVYYCAIRIRDGVSPENPNEYGYWGQGTQVTVSS | binds | binds | – | – | – |

Results, then the binder that gave them:

| binding result [1] | binding result [2] | binding result [3] | binding result [4] | binding result [5] | Binder |
| --- | --- | --- | --- | --- | --- |
| binds | binds | – | – | – | DR914 (VHH, also called anti-IFNGR1 sdAb VHH DR914) VHH: EVQLVESGGGLVQAGGSLTLSCVASGRAFSNSAMAWFRQTPGKEREFVSAISRGGGSTDYADSVKGRFTISKDNAKNTVYLQMNSLKPEDTAVYYCAMRYYSGRYYESLEYDYWGQGTQVTVSS |
| binds | binds | – | – | – | DR906 (VHH, also called anti-IFNGR1 sdAb VHH DR906) VHH: EVQLVESGGGLVQAGGSLRLSCAASGSTFSTYVMGWFRQAPGKEREFVAAISRSGGTTTYADSVKGRFDISRDNGKNTLFLQMNSLIPEDTAAYYCAARAGPAIGRTANDYHSWGQGTLVTVSS |
| binds | binds | – | – | – | DR926 (VHH, also called anti-IFNGR1 sdAb VHH DR926) VHH: EVQLVESGGGLVQAGGSLRLSCAASGRTFSRYAMNWFRQAPGKEREFVAAISWSSGNTYVADSVKGRFTISRDNAKNTMYLQMNNLAPEDTAVYYCAATTIATMSDENTYWGQGTQVTVSS |
| binds | binds | – | – | – | DR912 (VHH, also called anti-IFNGR1 sdAb VHH DR912) VHH: EVQLVESGGGLVQAGGSLRLSCAPSGRTFSSYAMAWFRQPPGKEREFVAAITVSGASTYYADSVKGRFTISRDNAKNSMYLQMNSLKPEDTAVYYCAAGGPGTIFPDYDYWGQGTQVTVSS |
| binds | binds | – | – | – | DR915 (VHH, also called anti-IFNGR1 sdAb VHH DR915) VHH: EVQLVESGGGLVQAGGSLRLSCAAARRTLHNFAMAWFRQAPGKEREFVAAISKGGGSADYADSVKGRFTISRDNAKNTVYLQMNSLKPEDTAVYYCAANDLASYSDSSYTSTSRYDYWGQGTQVTVSS |
| binds | binds | – | – | – | DR916 (VHH, also called anti-IFNGR1 sdAb VHH DR916) VHH: EVQLVESGGGLVQPGGSLRLSCTASGRPRTTYAMGWFRQAPGKEREIVAAISKAGGSTYVADSAKGRFAISKDNAKNTVYLQMNSLKPEDTAVYYCAARAGFAAQIFEYDYWGQGTLVTVSS |
| binds | binds | – | – | – | DR920 (VHH, also called anti-IFNGR1 sdAb VHH DR920) VHH: EVQLVESGGGLVQAGGSLRLSCAASGRSFANYAMGWFRQAPGKERETVAAISRGGGSTWYADSVKGRFTISKDNAKNTVYLQMNSLKPEDTAIYYCAARSYSGSYTYSFGEYDYWGQGTQVTVSS |
| binds | binds | – | – | – | DR917 (VHH, also called anti-IFNGR1 sdAb VHH DR917) VHH: EVQLVESGGGLVQAGGSLRLSCAASGRTFSGYNMGWFRQAPGKEREFVAAIAWAGSRTYYTDSVKGRFTISRDNAKNTMYLQMNTLRPEDTAVYYCAAHDETYYRLDRVDLYTHWGQGTLVTVSS |
| binds | binds | – | – | – | DR910 (VHH, also called anti-IFNGR1 sdAb VHH DR910) VHH: EVQLVESGGGLVQTGGSLRLSCAASGRTFSSYAMAWFRQAPGKEREFVAAISILGGSADYEDSVQGRFTISRDNAKNTMYLQMNSLKPEDTAVYYCAARRPAPSDSYWSSTSYAYWGQGTLVTVSS |
| binds | binds | – | – | – | DR909 (VHH, also called anti-IFNGR1 sdAb VHH DR909) VHH: EVQLVESGGGLVQAGGSLRLSCAASGRTFGTSFGALSMGWFRQAPGKEREFVAAITRNTGRTFYADSVKDRFTISRDNAKNTASLQMNSLEPEDTAVYICAATNSYDDLRRSYAYNYWGQGTQVTVSS |
| binds | binds | – | – | – | DR911 (VHH, also called anti-IFNGR1 sdAb VHH DR911) VHH: EVQLVESGGALVQAGGSLRLSCTVSGRSFSTYAMAWFRRAPGKERELVSAITVGGGSTYYVDSVKGRFTISRENAKNTLYLQMNNLKPEDTAIYICAARDYRRRSYAPEAEQYDYWGQGTQVTVSS |
| binds | binds | – | – | – | DR924 (VHH, also called anti-IFNGR1 sdAb VHH DR924) VHH: QVQLVESGGGLVQAGGSLRLSCTASGRTFSRYAMGWFRQAPGKEREFVATISRSGGTTSYANSVKGRFTISRDNAKNTVYLQMNSLKTEDTAVYNCAARDGPAMGVFGSDYDYWGQGTLVTVSS |
